Results taken from article PMC4598320, “Novel binders derived from an albumin-binding domain scaffold targeting human prostate secretory protein 94 (PSP94)” (Protein & Cell, 2015).
Values joined by “and” are separate entries in the source; they are usually repeats but may differ in a detail not shown here. Equal values may be shown once. Ends that are not written are not given here.

Experiments:
[1] = target: T1, PSP94 of LNCaP prostate cancer cells (membrane-bound on the cell surface); intracellular in permeabilized … (human (endogenous in LNCaP), UniProt P08118 21-114); assay: flow cytometry on cells; competition: LNCaP cells with (80 µg/mL) or without rabbit polyclonal antibody sc-68920 for 15 min on ice, then PAB binders at 10 µg/mL for 30 min; streptavidin-PE; details: one partner purified
T1 construct: the cells were not transfected; source: endogenous, LNCaP cells (on the cell surface; inside permeabilized cells)
T1 sequence (looked up): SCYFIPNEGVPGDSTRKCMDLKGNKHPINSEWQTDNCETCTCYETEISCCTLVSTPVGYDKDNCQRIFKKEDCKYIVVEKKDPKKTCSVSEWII

[2] = target: T2, recombinant HisTag-PSP94 (human prostate secretory protein 94) (human, UniProt P08118 21-114, fluorescent label (in the microscale thermophoresis only)); assay: MST; fluorescently labelled HisTag-PSP94 in solution, PAB variants titrated; thermophoresis + T-jump data, NanoTemper software; details: both partners purified
T2 construct: prostate secretory protein 94 (PSP94, β-microseminoprotein), human, product of the MSMB gene; The letter has no methods section; the construct may be told in the supplementary file; also called His-PSP94; β-microseminoprotein; not shown: His tag, N-terminal, kept
T2 sequence (looked up): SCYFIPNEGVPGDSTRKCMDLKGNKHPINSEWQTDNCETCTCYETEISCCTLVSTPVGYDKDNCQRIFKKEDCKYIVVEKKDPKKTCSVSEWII

[3] = target: both these PAB proteins; assay: flow cytometry on cells; competition: PAB variants mixed with increasing concentrations of recombinant HisTag-PSP94 and left to bind LNCaP cells for 30 min; streptavidin-PE; binding without PSP94 taken as 100%; pair recombinant PSP94 with PAB

B1: PAB046 (HisTag-PAB-TolA-AviTag fusion protein) (designed binder)
chain: LAEAKVLANRELDKYGVSDRYKNAINRAPAVWWVKRLIDAILAALP
modifications: not fully specified (N-terminus, C-terminus)
notes: numbers count on: the 46-residue ABD scaffold; positions 20-46 of the ABD scaffold with the 11 randomized positions as selected in PAB046; 46-residue ABD variant linked to a 305-residue TolA spacer with a C-terminal AviTag; also called PAB046 variant; source: E. coli, purified, in vivo biotinylated; not shown: His tag, N-terminal, kept; TolA spacer (helical, 305 amino acids), C-terminal, kept; …
percent inhibition of binding by polyclonal antibody sc-68920 (the pair that is blocked) [1]: 30%
Kd [2]: 49 ± 10 nM

B2: recombinant HisTag-PSP94 (human prostate secretory protein 94) (natural protein)
chain: SCYFIPNEGVPGDSTRKCMDLKGNKHPINSEWQTDNCETCTCYETEISCCTLVSTPVGYDKDNCQRIFKKEDCKYIVVEKKDPKKTCSVSEWII
modifications: fluorescent label (in the microscale thermophoresis only)
percent inhibition of PAB binding to LNCaP cells at 20 µg/mL PSP94 [3]: 5 to 10%

B3: PAB050 (HisTag-PAB-TolA-AviTag fusion protein) (designed binder)
chain: LAEAKVLANRELDKYGVSDLYKNHINTAWRVAAVKRAIDLILASLP
modifications: not fully specified (N-terminus, C-terminus)
notes: numbers count on: the 46-residue ABD scaffold; positions 20-46 of the ABD scaffold with the 11 randomized positions as selected in PAB050; 46-residue ABD variant linked to a 305-residue TolA spacer with a C-terminal AviTag; also called PAB50; PAB050 variant; source: E. coli, purified, in vivo biotinylated; not shown: His tag, N-terminal, kept; TolA spacer (helical, 305 amino acids), C-terminal, …
percent inhibition of binding by polyclonal antibody sc-68920 (the pair that is blocked) [1]: 30%
Kd [2]: 10 nM and 12 nM and 21 nM

B4: PAB036 (HisTag-PAB-TolA-AviTag fusion protein) (designed binder)
chain: LAEAKVLANRELDKYGVSDWYKNGINPAHRVRWVKGRIDAILARLP
modifications: not fully specified (N-terminus, C-terminus)
notes: numbers count on: the 46-residue ABD scaffold; positions 20-46 of the ABD scaffold with the 11 randomized positions as selected in PAB036; 46-residue ABD variant linked to a 305-residue TolA spacer with a C-terminal AviTag; also called PAB036 variant; source: E. coli, purified, in vivo biotinylated; not shown: His tag, N-terminal, kept; TolA spacer (helical, 305 amino acids), C-terminal, kept; …
percent inhibition of binding by polyclonal antibody sc-68920 (the pair that is blocked) [1]: ~15%
Kd [2]: 40 nM and 72 nM
